Columns and labels:
Assay in all cases: Adhesion of radioactively labeled bacteria to treated hydroxyapatite (HA)
Type in all cases: cell-based
Streptococcus mutans = settings: HA treated with the protein/peptide, saliva-treated HA = 100%
Experimental: (§1) PRP-1 and PRP-1(Tl) were investigated for their abilities to promote adhesion of bacteria to HA. Essentially, the method is to treat HA samples with nothing (negative control), saliva (positive control), or the respective proteins or peptides. The excess agent is removed by washing, and suspensions of radioactively labeled bacteria are added to the treated HA. After a suitable time, the excess bacteria are removed by washing and those remaining adsorbed to the HA are counted in a scintillation counter. In the table of results, bacterial adsorption to saliva-treated HA is considered to be 100%, and adsorption to PRP-1 or PRP-1(Tl)-treated HA expressed as a percentage of this reference value. This approach is necessary because of the diverse behaviors of different bacteria.

Actinomyces viscosus = settings: HA treated with the protein/peptide, saliva-treated HA = 100%
Experimental: as §1

Streptococcus mitis = settings: HA treated with the protein/peptide, saliva-treated HA = 100%
Experimental: as §1

Bacteroides gingivalis = tested on: Bacteroides gingivalis
Experimental: as §1

Streptococcus sanguis = tested on: Streptococcus sanguis
Experimental: as §1

B1: PRP-1: acidic proline-rich phosphoprotein derived from human saliva, 150 residues; sequence shown in the diagram (protein, UniProt P02810 17-166, looked up)
Salivary acidic proline-rich …: QDLDEDVSQEDVPLVISDGGDSEQFIDEERQGPPLGGQQSQPSAGDGNQNDGPQQGPPQQGGQQQQGPPPPQGKPQGPPQQGGHPPPPQGRPQGPPQQGGHPRPPRGRPQGPPQQGGHQQGPPPPPPGKPQGPPPQGGRPQGPPQGQSPQ
PERCENT ADHESION COMPARED TO SALIVA-TREATED HA (Streptococcus mutans): 81% | PERCENT ADHESION COMPARED TO SALIVA-TREATED HA (Actinomyces viscosus): 105% | PERCENT ADHESION COMPARED TO SALIVA-TREATED HA (Streptococcus mitis): 38% | adhesion of organism to treated HA (in words) (Bacteroides gingivalis; B. gingivalis, versus saliva-treated HA): higher than adhesion to saliva-treated HA | PERCENT ADHESION COMPARED TO SALIVA-TREATED HA (Bacteroides gingivalis; Bacteroides gingivalis, HA treated with the protein/peptide, saliva-treated HA = 100%): 335% | adhesion of organism to treated HA (in words) (Streptococcus sanguis; S. sanguis, versus saliva-treated HA): higher than adhesion to saliva-treated HA | PERCENT ADHESION COMPARED TO SALIVA-TREATED HA (Streptococcus sanguis; Streptococcus sanguis, HA treated with the protein/peptide, saliva-treated HA = 100%): 144%

— US5013542A, “Method to inhibit adhesion of disease-causing microorganisms to teeth” (Forsyth Dental Infirmary for Children, priority 1988, dated 1991)
